Test results reported in article PMC3575847 (Nucleic Acids Research, 2012).

Target: T1, Upf1-FL produced in E. coli (Upf1-FLc; amino acids 1–1118) (human, UniProt Q92900-2 1-1118)
T1 sequence (looked up): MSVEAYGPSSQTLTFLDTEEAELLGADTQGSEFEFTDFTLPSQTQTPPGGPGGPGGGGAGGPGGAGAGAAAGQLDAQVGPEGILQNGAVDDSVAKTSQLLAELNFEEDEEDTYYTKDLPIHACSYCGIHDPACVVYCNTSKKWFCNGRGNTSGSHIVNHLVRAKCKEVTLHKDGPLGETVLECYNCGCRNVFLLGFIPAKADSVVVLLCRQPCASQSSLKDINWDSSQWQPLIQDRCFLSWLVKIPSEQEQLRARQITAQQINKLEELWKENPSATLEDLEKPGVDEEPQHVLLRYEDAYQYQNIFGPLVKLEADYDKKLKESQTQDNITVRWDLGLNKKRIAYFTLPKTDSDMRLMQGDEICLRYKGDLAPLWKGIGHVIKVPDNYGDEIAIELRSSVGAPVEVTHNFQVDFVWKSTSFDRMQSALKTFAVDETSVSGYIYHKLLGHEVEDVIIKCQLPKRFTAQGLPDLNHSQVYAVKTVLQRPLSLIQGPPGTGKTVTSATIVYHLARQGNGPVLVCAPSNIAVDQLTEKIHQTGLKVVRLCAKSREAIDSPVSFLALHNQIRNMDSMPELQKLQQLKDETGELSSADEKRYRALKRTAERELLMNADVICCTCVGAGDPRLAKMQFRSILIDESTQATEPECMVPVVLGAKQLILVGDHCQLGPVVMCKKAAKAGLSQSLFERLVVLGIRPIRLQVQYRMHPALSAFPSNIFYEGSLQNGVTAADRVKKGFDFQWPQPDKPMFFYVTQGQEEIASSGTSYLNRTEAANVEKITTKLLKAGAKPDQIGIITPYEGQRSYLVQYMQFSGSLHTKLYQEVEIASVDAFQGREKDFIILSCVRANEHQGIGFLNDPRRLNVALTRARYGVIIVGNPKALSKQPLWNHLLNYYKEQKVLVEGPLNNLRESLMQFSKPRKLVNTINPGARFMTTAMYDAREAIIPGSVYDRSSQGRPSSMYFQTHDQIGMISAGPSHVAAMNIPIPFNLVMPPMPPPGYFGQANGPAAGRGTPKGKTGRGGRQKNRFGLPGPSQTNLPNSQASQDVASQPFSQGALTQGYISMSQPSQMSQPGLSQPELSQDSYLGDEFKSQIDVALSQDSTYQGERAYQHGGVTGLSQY
Experiment: pull-down

B1: CBP-tagged Upf2 (761–1227) (domain or fragment, UniProt Q9HAU5 761-1227, looked up)
chain: EKTVKKKRPPLQEYVRKLLYKDLSKVTTEKVLRQMRKLPWQDQEVKDYVICCMINIWNVKYNSIHCVANLLAGLVLYQEDVGIHVVDGVLEDIRLGMEVNQPKFNQRRISSAKFLGELYNYRMVESAVIFRTLYSFTSFGVNPDGSPSSLDPPEHLFRIRLVCTILDTCGQYFDRGSSKRKLDCFLVYFQRYVWWKKSLEVWTKDHPFPIDIDYMISDTLELLRPKIKLCNSLEESIRQVQDLEREFLIKLGLVNDKDSKDSMTEGENLEEDEEEEEGGAETEEQSGNESEVNEPEEEEGSDNDDDEGEEEEEENTDYLTDSNKENETDEENTEVMIKGGGLKHVPCVEDEDFIQALDKMMLENLQQRSGESVKVHQLDVAIPLHLKSQLRKGPPLGGGEGEAESADTMPFVMLTRKGNKQQFKILNVPMSSQLAANHWNQQQAEQEERMRMKKLTLDINERQEQED
B1: binds.
